Results taken from patent publication US20250002610A1 (Genmab, published 2025).

Assays:
[1] = molecular target: T1, mouse FAPα on Expi293F cells (mouse (Mus musculus), UniProt P97321 1-761); assay: flow cytometry on Expi293F cells transiently expressing mouse FAPα, gMFI PE
T1 sequence: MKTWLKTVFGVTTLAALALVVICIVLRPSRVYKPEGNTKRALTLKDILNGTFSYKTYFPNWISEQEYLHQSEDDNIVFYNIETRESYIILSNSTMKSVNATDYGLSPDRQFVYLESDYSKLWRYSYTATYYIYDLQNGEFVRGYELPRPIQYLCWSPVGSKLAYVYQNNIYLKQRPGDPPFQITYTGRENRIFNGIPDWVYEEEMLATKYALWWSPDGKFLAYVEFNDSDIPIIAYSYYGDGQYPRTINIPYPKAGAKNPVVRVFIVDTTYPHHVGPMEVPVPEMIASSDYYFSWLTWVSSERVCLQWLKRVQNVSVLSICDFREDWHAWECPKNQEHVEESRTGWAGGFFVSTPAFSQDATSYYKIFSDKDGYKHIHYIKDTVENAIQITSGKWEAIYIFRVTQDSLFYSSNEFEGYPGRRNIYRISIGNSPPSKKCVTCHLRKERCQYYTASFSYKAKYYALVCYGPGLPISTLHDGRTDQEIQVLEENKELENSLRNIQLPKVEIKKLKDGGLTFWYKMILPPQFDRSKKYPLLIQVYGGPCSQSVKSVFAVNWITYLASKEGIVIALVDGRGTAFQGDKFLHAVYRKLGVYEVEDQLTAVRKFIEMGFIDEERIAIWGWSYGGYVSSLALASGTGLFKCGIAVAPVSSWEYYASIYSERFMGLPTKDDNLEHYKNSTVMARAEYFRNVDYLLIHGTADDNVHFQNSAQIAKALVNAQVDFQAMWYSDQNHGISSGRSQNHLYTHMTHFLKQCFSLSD
Procedure: Binding of BisG1-FAPα-FERL/DR4-FERR, BisG1-FAPα-FEAL/b12-FEAR and IgG1-FAPα-FERL to FAPα of species commonly used for nonclinical toxicology studies was assessed by flow cytometry using Expi293F cells transiently expressing FAPα from different animal species. IgG1-b12 was included as negative control.
Expi293F cells expressing recombinant FAPα from various species (human, cynomolgus monkey, dog, pig, rat or mouse) were seeded (20,000 cells/well) in 96-Well round bottom plates (Greiner Bio-one, Cat #650101). Antibody dilutions were prepared using FACS buffer, consisting of PBS (Capricorn Scientific, Cat #PBS-10XA, diluted to 1×PBS in distilled water)+1% BSA (Roche, Cat #10735086001)+0.02% Sodium Azide (Bio-World, Cat #41920044-3). Plates were centrifuged, supernatant was removed, and cells were resuspended in 100 μL of antibody dilutions (concentration range 30-0.00017 μg/mL with three-fold serial dilutions using FACS buffer) of BisG1-FAPα-FERL/DR4-FERR, BisG1-FAPα-FEAL/b12-FEAR, IgG1-FAPα-FERL and IgG1-b12 and incubated for 30 min at 4° C. […] After 30 min incubation at 4° C., cells were washed with FACS buffer and resuspended in FACS buffer supplemented with TO-PRO-3 Iodide viability marker (Invitrogen, Cat #T3605, diluted 1:4,000). Antibody binding to viable cells (gMFI of PE on TO-PRO-3 negative cells) was analyzed by flow cytometry on a FACS Celesta and FACS_Diva software (first two experiments) or iQue® 3 and FlowJo software (last experiment). gMFI was determined and visualized using GraphPad Prism. Binding curves were analyzed using nonlinear regression analysis. The concentration (pg/mL) at which 50% of the maximal effect was observed (EC₅₀) was derived from the fitted curves.

[2] = molecular target: T2, human DR4 (Death Receptor 4), cell surface expressed on human tumor cell lines (human, UniProt O00220 24-468); assay: flow cytometry, A549 cells, n = 3
T2 construct: also called TNFRSF10A; TRAIL-R1
T2 sequence: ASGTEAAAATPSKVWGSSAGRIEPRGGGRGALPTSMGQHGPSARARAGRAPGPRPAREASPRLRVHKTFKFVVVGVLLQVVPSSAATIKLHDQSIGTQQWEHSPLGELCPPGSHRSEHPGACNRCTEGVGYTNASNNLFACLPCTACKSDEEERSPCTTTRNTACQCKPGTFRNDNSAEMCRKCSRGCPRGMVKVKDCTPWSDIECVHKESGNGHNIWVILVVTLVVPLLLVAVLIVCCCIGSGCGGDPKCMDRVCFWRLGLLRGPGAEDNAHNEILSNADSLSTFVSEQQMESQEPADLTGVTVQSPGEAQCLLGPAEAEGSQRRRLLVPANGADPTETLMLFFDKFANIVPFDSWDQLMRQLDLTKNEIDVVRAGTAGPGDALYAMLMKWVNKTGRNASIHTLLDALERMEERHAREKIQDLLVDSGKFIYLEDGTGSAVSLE

[3] = molecular target: T2, human DR4 (Death Receptor 4), cell …; assay: flow cytometry, DLD-1 cells, n = 1
[4] = molecular target: T2, human DR4 (Death Receptor 4), cell …; assay: flow cytometry, HCT-116 cells, n = 1
[5] = molecular target: T2, human DR4 (Death Receptor 4), cell …; assay: flow cytometry, MDA-MB-231 cells, average ± SEM

B1: BisG1-FAPα-FEAL/b12-FEAR (bispecific antibody, human IgG1, kappa)
heavy 1: EVQLLESGGGLVQPGGSPRLSCEASGFTFSSYALSWVRQAPGKGLEWVSAISGSGGGRYYADSVKGRFTISRDNSKNTLFLQMNSLRAEDTAVYYCAKEGYSSSGTYWDHWGQGTLVTVSSASTKGPSVFPLAPSSKSTSGGTAALGCLVKDYFPEPVTVSWNSGALTSGVHTFPAVLQSSGLYSLSSVVTVPSSSLGTQTYICNVNHKPSNTKVDKRVEPKSCDKTHTCPPCPAPEFEGGPSVFLFPPKPKDTLMISRTPEVTCVVVAVSHEDPEVKFNWYVDGVEVHNAKTKPREEQYNSTYRVVSVLTVLHQDWLNGKEYKCKVSNKALPAPIEKTISKAKGQPREPQVYTLPPSREEMTKNQVSLTCLVKGFYPSDIAVEWESNGQPENNYKTTPPVLDSDGSFLLYSKLTVDKSRWQQGNVFSCSVMHEALHNHYTQKSLSLSPG
light 1: AIQMTQSPSSVSASVGDRVTITCRASQGVSSWLAWYQQKPGRAPKLLIYVASTLQSGVPSRFSGSGSGTDFTLTINSLQPEDFATYYCQQANSFPPTFGQGTRLEMKRTVAAPSVFIFPPSDEQLKSGTASVVCLLNNFYPREAKVQWKVDNALQSGNSQESVTEQDSKDSTYSLSSTLTLSKADYEKHKVYACEVTHQGLSSPVTKSFNRGEC
heavy 2: QVQLVQSGAEVKKPGASVKVSCQASGYRFSNFVIHWVRQAPGQRFEWMGWINPYNGNKEFSAKFQDRVTFTADTSANTAYMELRSLRSADTAVYYCARVGPYSWDDSPQDNYYMDVWGKGTTVIVSSASTKGPSVFPLAPSSKSTSGGTAALGCLVKDYFPEPVTVSWNSGALTSGVHTFPAVLQSSGLYSLSSVVTVPSSSLGTQTYICNVNHKPSNTKVDKRVEPKSCDKTHTCPPCPAPEFEGGPSVFLFPPKPKDTLMISRTPEVTCVVVAVSHEDPEVKFNWYVDGVEVHNAKTKPREEQYNSTYRVVSVLTVLHQDWLNGKEYKCKVSNKALPAPIEKTISKAKGQPREPQVYTLPPSREEMTKNQVSLTCLVKGFYPSDIAVEWESNGQPENNYKTTPPVLDSDGSFFLYSRLTVDKSRWQQGNVFSCSVMHEALHNHYTQKSLSLSPG
light 2: EIVLTQSPGTLSLSPGERATFSCRSSHSIRSRRVAWYQHKPGQAPRLVIHGVSNRASGISDRFSGSGSGTDFTLTITRVEPEDFALYYCQVYGASSYTFGQGTKLERKRTVAAPSVFIFPPSDEQLKSGTASVVCLLNNFYPREAKVQWKVDNALQSGNSQESVTEQDSKDSTYSLSSTLTLSKADYEKHKVYACEVTHQGLSSPVTKSFNRGEC
notes: Fab-arm exchange of IgG1-FAPα-FEAL and IgG1-b12-FEAR
B1: binds [1].

B2: IgG1-FAPα-FERL (antibody)
heavy: EVQLLESGGGLVQPGGSPRLSCEASGFTFSSYALSWVRQAPGKGLEWVSAISGSGGGRYYADSVKGRFTISRDNSKNTLFLQMNSLRAEDTAVYYCAKEGYSSSGTYWDHWGQGTLVTVSSASTKGPSVFPLAPSSKSTSGGTAALGCLVKDYFPEPVTVSWNSGALTSGVHTFPAVLQSSGLYSLSSVVTVPSSSLGTQTYICNVNHKPSNTKVDKRVEPKSCDKTHTCPPCPAPEFERGPSVFLFPPKPKDTLMISRTPEVTCVVVDVSHEDPEVKFNWYVDGVEVHNAKTKPREEQYNSTYRVVSVLTVLHQDWLNGKEYKCKVSNKALPAPIEKTISKAKGQPREPQVYTLPPSREEMTKNQVSLTCLVKGFYPSDIAVEWESNGQPENNYKTTPPVLDSDGSFLLYSKLTVDKSRWQQGNVFSCSVMHEALHNHYTQKSLSLSPG
light: AIQMTQSPSSVSASVGDRVTITCRASQGVSSWLAWYQQKPGRAPKLLIYVASTLQSGVPSRFSGSGSGTDFTLTINSLQPEDFATYYCQQANSFPPTFGQGTRLEMKRTVAAPSVFIFPPSDEQLKSGTASVVCLLNNFYPREAKVQWKVDNALQSGNSQESVTEQDSKDSTYSLSSTLTLSKADYEKHKVYACEVTHQGLSSPVTKSFNRGEC
notes: Bivalent monoclonal IgG1 kappa
B2 was tested, and the “EC50 (read off the curve)” value [1] was roughly 0.1 µg/mL.

B3: BisG1-b12-FERL/DR4-FERR (bispecific antibody, human IgG1, kappa, lambda)
heavy 1: QVQLVQSGAEVKKPGASVKVSCQASGYRFSNFVIHWVRQAPGQRFEWMGWINPYNGNKEFSAKFQDRVTFTADTSANTAYMELRSLRSADTAVYYCARVGPYSWDDSPQDNYYMDVWGKGTTVIVSSASTKGPSVFPLAPSSKSTSGGTAALGCLVKDYFPEPVTVSWNSGALTSGVHTFPAVLQSSGLYSLSSVVTVPSSSLGTQTYICNVNHKPSNTKVDKRVEPKSCDKTHTCPPCPAPEFERGPSVFLFPPKPKDTLMISRTPEVTCVVVDVSHEDPEVKFNWYVDGVEVHNAKTKPREEQYNSTYRVVSVLTVLHQDWLNGKEYKCKVSNKALPAPIEKTISKAKGQPREPQVYTLPPSREEMTKNQVSLTCLVKGFYPSDIAVEWESNGQPENNYKTTPPVLDSDGSFLLYSKLTVDKSRWQQGNVFSCSVMHEALHNHYTQKSLSLSPG
light 1: EIVLTQSPGTLSLSPGERATFSCRSSHSIRSRRVAWYQHKPGQAPRLVIHGVSNRASGISDRFSGSGSGTDFTLTITRVEPEDFALYYCQVYGASSYTFGQGTKLERKRTVAAPSVFIFPPSDEQLKSGTASVVCLLNNFYPREAKVQWKVDNALQSGNSQESVTEQDSKDSTYSLSSTLTLSKADYEKHKVYACEVTHQGLSSPVTKSFNRGEC
heavy 2: QVQLQESGPGLVKPSGTLSLTCAVSGGSISSYSWWSWIRQPPGKGLEWIGELYHSGSTNYNPSLKSRVTISVDKSKNQFSLKLRSVTAADTAVYYCVRGVATIDYWGQGTLVTVSSASTKGPSVFPLAPSSKSTSGGTAALGCLVKDYFPEPVTVSWNSGALTSGVHTFPAVLQSSGLYSLSSVVTVPSSSLGTQTYICNVNHKPSNTKVDKRVEPKSCDKTHTCPPCPAPEFERGPSVFLFPPKPKDTLMISRTPEVTCVVVDVSHEDPEVKFNWYVDGVEVHNAKTKPREEQYNSTYRVVSVLTVLHQDWLNGKEYKCKVSNKALPAPIEKTISKAKGQPREPQVYTLPPSREEMTKNQVSLTCLVKGFYPSDIAVEWESNGQPENNYKTTPPVLDSDGSFFLYSRLTVDKSRWQQGNVFSCSVMHEALHNHYTQKSLSLSPG
light 2: QSALTQPPSASGSPGQSVTISCTGTSSDVGGYNFVSWYQQDPGKAPKLLIYEVTKRPSGVPDRFSGSKSGNTASLTVSGLQAEDEADYYCSSYAGSNNVMFGGGTKLTVLGQPKAAPSVTLFPPSSEELQANKATLVCLISDFYPGAVTVAWKADSSPVKAGVETTTPSKQSNNKYAASSYLSLTPEQWKSHRSYSCQVTHEGSTVEKTVAPTECS
notes: Fab-arm exchange of IgG1-b12-FERL and IgG1-DR4-FERR; also called bsIgG1-ctrl-FERLxDR4-FERR
Work on B3 yielded an EC50 [2] of 0.78 µg/mL, an EC50 [3] of 0.85 µg/mL and an EC50 [4] of 0.51 µg/mL. It also gave an EC50 [5] of 1.02 µg/mL.

B4: IgG1-DR4-FERR (antibody, V domains shown)
VH: QVQLQESGPGLVKPSGTLSLTCAVSGGSISSYSWWSWIRQPPGKGLEWIGELYHSGSTNYNPSLKSRVTISVDKSKNQFSLKLRSVTAADTAVYYCVRGVATIDYWGQGTLVTVSS
VL: QSALTQPPSASGSPGQSVTISCTGTSSDVGGYNFVSWYQQDPGKAPKLLIYEVTKRPSGVPDRFSGSKSGNTASLTVSGLQAEDEADYYCSSYAGSNNVMFGGGTKLTVLG
notes: Bivalent monoclonal IgG1 lambda
B4 showed an EC50 [2] of 0.21 µg/mL, an EC50 [3] of 0.33 µg/mL and an EC50 [4] of 0.22 µg/mL. It also gave an EC50 [5] of 0.32 µg/mL.
